Reference: patent US20200010546A1 (TRICAN BIOTECHNOLOGY, published 2020)
Changes are numbered by the printed parent chain.

Assays:
[1] = molecular target: T1, recombinant human CD47-Fc protein (R&D Systems, USA) (human, UniProt Q08722 19-139); assay: ELISA of Fab supernatant on coated CD47-Fc
T1 construct: Bought from R&D Systems; also called CD47-Fc fusion protein; recombinant CD47; not shown: Fc part of the bought fusion

[2] = molecular target: T1, recombinant human CD47-Fc protein (R&D …); assay: titration ELISA on coated CD47-Fc
[3] = molecular target: T1, recombinant human CD47-Fc protein (R&D …); assay: blocking ELISA: CD47-Fc (1 µg/ml) binding to coated His-tagged SIRP-α
[4] = molecular target: T2, recombinant human His-tagged SIRP-α protein (R&D Systems, USA) (human, UniProt P78324 31-370, limits assumed); assay: direct ELISA, SIRP-α coated at 1 µg/ml
T2 construct: Bought from R&D Systems; also called signal-regulatory protein alpha; not shown: His tag
T2 sequence (P78324 31-370 limits assumed): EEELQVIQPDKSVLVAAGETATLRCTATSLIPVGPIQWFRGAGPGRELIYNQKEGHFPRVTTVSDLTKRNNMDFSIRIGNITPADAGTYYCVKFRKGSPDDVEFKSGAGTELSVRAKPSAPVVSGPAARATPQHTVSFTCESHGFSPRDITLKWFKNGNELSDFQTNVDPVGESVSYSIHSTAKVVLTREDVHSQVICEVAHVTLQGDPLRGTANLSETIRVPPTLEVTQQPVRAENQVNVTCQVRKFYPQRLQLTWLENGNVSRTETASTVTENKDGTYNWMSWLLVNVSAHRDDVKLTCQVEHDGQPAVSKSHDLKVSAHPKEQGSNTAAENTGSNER

T1 sequence (Q08722 19-139 limits assumed): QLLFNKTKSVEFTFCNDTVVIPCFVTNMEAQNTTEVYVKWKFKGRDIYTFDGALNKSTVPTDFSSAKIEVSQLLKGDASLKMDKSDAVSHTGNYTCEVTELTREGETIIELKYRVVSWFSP

B1: CwP1A1 Fab (library clone) (Fab, V domains shown)
VH: QITLKESGPTLVKPTQTLTLTCTFSGFSLSTRGVGVGWIRQPPGKALEWLALIYWNDDKRYSPSLKSRLTITKDTSKNQVVLTMTNMDPVDTATYYCAHLITFGGRRAFDIWGQGTMVTVSS
VL: not shown
notes: Fab in bacterial supernatant
**Q.** B1 was tested. Which OD450 [1] did it give?
**A.** > 0.5 OD450

B2: CwP1C4 (IgG4-reformatted anti-CD47 antibody) (antibody, V domains shown)
VH: B1 VH with I2V, F27L, R32S, I71V
VL: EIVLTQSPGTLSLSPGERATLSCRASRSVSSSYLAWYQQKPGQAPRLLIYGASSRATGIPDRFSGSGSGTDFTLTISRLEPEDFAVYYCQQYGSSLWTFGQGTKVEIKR
notes: Full-length human IgG4, expressed in HEK293 cells
**Q.** Which results are given for B2?
**A.** EC50 [2]: 0.227 nM; IC50 [3]: 0.155 nM; binding result [4]: no binding (tested: 0.5 µg/ml)

B3: CwP2F8 (IgG4-reformatted anti-CD47 antibody) (antibody, V domains shown)
VH: QVQLVQSGAEVKKPGSSVKVSCKASGGTFSSYAISWVRQAPGQGLEWMGRIIPILGIANYAQKFQGRVTITADKSTSTAYMELSSLRSEDTAVYYCARSLRWLHRVFDYWGQGTTVTVSS
VL: QSVLTQPASVSGSPGQSITISCTGTSSDVGGYNYVSWYQQHPGKAPKLIIFDVINRPSGVSSRFSGSKSGTSATLVITGLQTGDEADYYCGTWDNSLRAYVFGSGTNVTALG
notes: as for B2
**Q.** How did the EC50 [2] turn out when B3 was run?
**A.** 0.326 nM

**Q.** What about the IC50 [3] of the same binder?
**A.** 0.068 nM

**Q.** Does B3 bind [4]?
**A.** no binding (tested: 0.5 µg/ml)

B4: CwP2F12 (IgG4-reformatted anti-CD47 antibody) (antibody, V domains shown)
VH: QVQLVQSGAEVKKPGASVRLSCKASGYTFSSYYMHWVRQAPGQGLVWMGTSIPTAASGSYAQKFQGRVTMTRDTSTTTVYMELSSLRSEDTAVYYCARGGRGGFDYWGQGTPVTVSS
VL: QPGLTQPPSVSKGLRRTATLTCTGNSNNVGNQGAVWLQQHQGHPPKLLSYRNNNRPSGISERFSASRSANTASLTITGLQPEDEADYYCSAWDSSLSGWVFGGGTKLTVLG
notes: as for B2
**Q.** What does the source list for B4?
**A.** EC50 [2]: 0.441 nM; IC50 [3]: 0.063 nM; binding result [4]: no binding (tested: 0.5 µg/ml)

B5: BrP1F3 (IgG4-reformatted anti-CD47 antibody) (antibody, V domains shown)
VH: QVQLVQSGAEVKKPGASVKVSCKASGYTFTSYYMHWVRQAPGQGLEWMGIINPSGGSTSYAQKFQGRVTMTRDTSTSTVYMELSSLRSEDTAVYYCARGGTLGMDVWGQGTTVTVSS
VL: SSELTQDPAVSVALGQTVRITCQGDSLRSYYASWYQQKPGQAPVLVIYGKNNRPSGIPDRFSGSSSGNTASLTITGAQAEDEADYYCNSRDSSGNHYVFGTGTKVTVLG
notes: as for B2
**Q.** For B5, which EC50 [2] is on record?
**A.** 10.1 nM

**Q.** Does B5 bind [4]?
**A.** no binding (tested: 0.5 µg/ml)

B6: BrP1F11 (IgG4-reformatted anti-CD47 antibody) (antibody, V domains shown)
VH: QVQLVQSGAEVKKPGASVKISCKASGYTFTTYHIHWVRQAPGQGLEWMGVINSNAGNTGYAQNFQDRVTMTRDTSTSTVYMELRSLKSDDTAVYYCAKDPGMGWYMHHWGQGTLVTVSS
VL: NFMLTQPQSVSGSPGETVTISCTGSGGPIASNYVQWYQQRPGSVPTTVIYEDTKRPSGVPDRFSGSIDSSSNSASLTISGLKTEDEADYYCQSYESRNYVFGTGTKVSVLS
notes: Full-length human IgG4, expressed in HEK293 cells; also called BrP1F11-G4
**Q.** Which results are given for B6?
**A.** EC50 [2]: 1.21 nM; binding result [4]: no binding (tested: 0.5 µg/ml)

B7: CwP1C4 Fab (library clone) (Fab, V domains shown)
VH: B1 VH with I2V, F27L, R32S, I71V
VL: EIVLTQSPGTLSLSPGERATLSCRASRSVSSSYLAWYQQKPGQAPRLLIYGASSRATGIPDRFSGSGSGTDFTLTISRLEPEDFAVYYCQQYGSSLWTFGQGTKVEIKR
notes: Fab in bacterial supernatant
**Q.** How did the OD450 [1] turn out when B7 was run?
**A.** > 0.5 OD450

B8: CwP2F8 Fab (library clone) (Fab, V domains shown)
VH: B3 VH
VL: B3 VL
notes: Fab in bacterial supernatant
**Q.** For B8, which OD450 [1] is on record?
**A.** > 0.5 OD450

B9: CwP2F12 Fab (library clone) (Fab, V domains shown)
VH: B4 VH
VL: B4 VL
notes: Fab in bacterial supernatant
**Q.** B9 was tested. Which OD450 [1] did it give?
**A.** > 0.5 OD450

B10: BrP1F3 Fab (library clone) (Fab, V domains shown)
VH: B5 VH
VL: B5 VL
notes: Fab in bacterial supernatant
**Q.** B10 was tested. Which OD450 [1] did it give?
**A.** > 0.5 OD450

B11: BrP1F11 Fab (library clone) (Fab, V domains shown)
VH: B6 VH
VL: B6 VL
notes: Fab in bacterial supernatant
**Q.** With B11 as the binder, how does the OD450 [1] read?
**A.** > 0.5 OD450
